Values of other authors, collected in article PMC5321513.

How the values were obtained:
14-3-3ζ (Homo sapiens) = 14-3-3ζ (Homo sapiens) (UniProt P63104)
14-3-3σ (Homo sapiens) = 14-3-3σ (Homo sapiens) (UniProt P31947)
Sequence of 14-3-3σ (Homo sapiens) (P31947 whole entry): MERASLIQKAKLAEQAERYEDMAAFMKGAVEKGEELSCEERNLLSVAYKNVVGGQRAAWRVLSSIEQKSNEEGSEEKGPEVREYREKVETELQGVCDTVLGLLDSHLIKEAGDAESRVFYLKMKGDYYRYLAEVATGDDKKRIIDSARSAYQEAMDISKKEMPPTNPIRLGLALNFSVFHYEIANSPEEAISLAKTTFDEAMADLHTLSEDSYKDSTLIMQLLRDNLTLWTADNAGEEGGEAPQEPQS

Sequence of 14-3-3ζ (Homo sapiens) (P63104 whole entry): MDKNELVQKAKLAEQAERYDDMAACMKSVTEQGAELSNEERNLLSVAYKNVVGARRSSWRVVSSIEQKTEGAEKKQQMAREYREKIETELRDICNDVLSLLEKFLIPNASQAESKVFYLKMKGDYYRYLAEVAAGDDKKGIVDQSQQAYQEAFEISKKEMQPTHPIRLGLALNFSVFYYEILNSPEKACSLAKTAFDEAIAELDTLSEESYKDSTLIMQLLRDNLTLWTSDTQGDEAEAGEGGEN

For “C-RAF phosphopeptide (from UniProt P04049)”, the Kd (14-3-3ζ (Homo sapiens)) is given as 16.7 µM.

In the case of “p53 phosphopeptide (from UniProt P04637)”, the Kd (14-3-3σ (Homo sapiens)) is listed as 16.3 µM.
